Measured values from article PMC4784741.
Each block holds one substance with its values, some of them ahead of it.

How the values were obtained:
[1] = target: recombinant human cathepsin L (human)
[2] = target: recombinant p31 Ii without cytoplasmic and transmembrane domain (and no inhibitory fragment) (human); assay: SDS-PAGE with Western blot; recombinant Ii isoforms separated by SDS-PAGE, blotted and labelled with anti-Ii (LN2) mAb; minor bands above the monomers
[3] = target: recombinant p41 Ii without cytoplasmic and transmembrane domain (with inhibitory p41 fragment included) (human); assay: as above

recombinant p41 Ii without cytoplasmic and transmembrane domain (with inhibitory p41 fragment included) (domain or fragment), sequence (P04233 73-296): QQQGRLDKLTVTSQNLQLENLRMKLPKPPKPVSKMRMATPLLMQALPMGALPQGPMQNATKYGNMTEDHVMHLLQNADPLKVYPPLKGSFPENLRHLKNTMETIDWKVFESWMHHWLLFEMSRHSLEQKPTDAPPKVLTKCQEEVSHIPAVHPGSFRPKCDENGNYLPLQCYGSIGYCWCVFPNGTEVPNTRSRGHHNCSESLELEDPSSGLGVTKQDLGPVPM

active site titration: degradation of Z-Phe-Arg-AMC by cathepsin L (2.5 nM) with p41 fragment 0.5 nM to 3 nM; molar ratio at which the activity is abolished (molar ratio p41 fragment/cathepsin L) [1]: 1
Substance: p41 fragment of invariant chain p41 Ii (domain or fragment)

stoichiometry N [2]: 2
Substance: recombinant p31 Ii without cytoplasmic and transmembrane domain (and no inhibitory fragment) (domain or fragment)

stoichiometry N [3]: 2
Substance: recombinant p41 Ii without cytoplasmic and transmembrane domain (with inhibitory p41 fragment included) (domain or fragment)
